B2: Ac-QQKPKPKPKQQ-Am [mCATCH(+)] (peptide)
peptide: Ac-QQKPKPKPKQQ-NH2
notes: Mutant of CATCH(+) with proline in place of the phenylalanine residues

Columns and labels:
[1] = literature value (ref. 7); cited from earlier work
[2] = Protein incorporation and retention in macroscopic hydrogels under excess PBS; assay type: physicochemical
Description: Macroscopic Hydrogel Formation. A 12 mM stock solution of CATCH(−) was prepared by dissolving dry peptide in 1x PBS and adjusting the pH to ˜7.6 with ammonium bicarbonate (Fisher). A 12 mM stock solution of CATCH(+) was prepared by dissolving dry peptide in 1X PBS and adjusting the pH to ˜7.2 with hydrochloric acid (0.5 N Fisher). CATCH peptide stock solutions were combined at a 1:1 (v/v) ratio in a 0.2 mL glass vial (Thermo), and the vial was gently swirled for 2 min until the hydrogel formed. The hydrogel was stained with red food coloring to aid visualization. Hydrogel images were recorded using a digital still camera.
Protein Incorporation into Macroscopic Hydrogels. […] Immediately after hydrogel formation, fluorescence was visualized by placing the glass vials on a SafeImager 2.0 transilluminator (Invitrogen) and recording images with a digital still camera. […] At various time points, fluorescence in the buffer supernatant was visualized by placing the glass vials on a SafeImager 2.0 transilluminator (Invitrogen) and recording images with a digital still camera. At the end-point, buffer supernatant was carefully removed by decanting and fluorescence was visualized by placing the glass vials on a SafeImager 2.0 transilluminator (Invitrogen) and recording images with a digital still camera.

[3] = Circular dichroism: concentration-dependent transition from random coil to β-sheet; assay type: physicochemical; conditions: equimolar mixture of CATCH peptides in 1x PBS, ellipticity at 212 nm
Description: Circular Dichroism. Circular Dichroism was performed on an AVIV 202 spectrometer. Peptides were prepared in 1x PBS at 500 μM, unless stated otherwise. Samples were run 3 times, averaged, and converted to mean residue ellipticity. All data reported was for dynode values <500 V.
(§1) Nanofiber preparation. Stock solutions of CATCH(−) and CATCH(+) were prepared by dissolving lyophilized peptides in 1x PBS to a final concentration of 500 μM. Peptide concentration was confirmed using Phe absorbance (λ=260 nm). CATCH peptides were then mixed at a 1:1 (v/v) ratio and incubated overnight for formation of nanofibers, unless stated otherwise.

[4] = biological target: T1, Ac-EQEPEPEPEQE-Am [mCATCH(-)]; experiment: ThT fluorimetry, equimolar mixture
T1 construct: Mutant of CATCH(-) with proline in place of the phenylalanine residues
T1 peptide: Ac-EQEPEPEPEQE-NH2
Description: (§2) Thioflavin T (ThT) Assay. A ThT stock solution containing 0.8 mg/mL of thioflavin T (Acros) in 1x phosphate-buffered saline (PBS) (137 mM NaCl, 2.7 mM KCl, 10 mM Na₂HPO₄ and 1.8 mM KH₂PO₄, pH 7.4) was filtered through a 0.22 μm syringe filter (Millex), and further diluted 1:10 with 1x PBS to create a working solution. Peptide samples were mixed with the ThT working solution at a 1:10 (v/v) ratio, added to a black 96-well plate (Corning), and analyzed with a Molecular Devices SpectraMax M3 spectrophotometer (excitation 450, emission 482 nm). All samples were run in triplicate, with the mean and standard deviation of these samples reported.
as §1

[5] = biological target: the molecule itself; experiment: ThT fluorimetry, TEM, CD and fluorescence microscopy of the peptide alone
[6] = biological target: T1, Ac-EQEPEPEPEQE-Am [mCATCH(-)]; experiment: ThT fluorimetry, kinetic, equimolar mixture
[7] = Dissolution of monosodium urate (MSU) crystals in vitro; assay type: biochemical; conditions: 12.6 ug soluble CATCH-U, 0.5 mg MSU crystals, 2250 U/mL catalase, 96 hours, density at 293 nm
Description: The enzymatic activity of CATCH-U in soluble and gel form was evaluated by measuring uric acid depletion over time via absorbance at 293 nm and 37° C. for varying concentrations of uric acid substrate. Hydrogels were left to incubate at 37° C. for 4 days with substrate removed and replenished daily to determine if the gels remain active over this timeframe. Gels were also incubated with monosodium urate (MSU) crystals.
Soluble CATCH-U activity in dissolving MSU crystals was assessed by incubating 12.6 ug soluble CATCH-U with 0.5 mg MSU crystals and 2250 U/mL catalase for 96 hours (FIG. 60). MSU crystal density was determined at 293 nm compared to a standard curve of crystals. […] Brightfield images, scale bar=[…].
The hydrogel creates a concentration gradient sufficient to dissolve crystallized uric acid in the form of monosodium urate (MSU) crystals (FIGS. 58 and 61). […] MSU crystals appear as white flakes while the background is black. The gel is the white mass on the right. […] A similar experiment was performed with lOuL hydrogels comprising 3.17 ug CATCH-U and incubated with 1 g/L MSU crystals for 24 hours (FIG. 61). […] Polarized, phase contrast images, scale bar=500 μm.

[8] = biological target: B2; experiment: ThT fluorimetry, equimolar mixture
Description: as §2, §1

Question: Which “Concentration at which the peptide self-assembles into β-sheet nanofibers” value [1] does the source give for “Ac-QQKFQFQFEQQ-Am (Ac-QQKFQFQFEQQ-NH2) [Q11]” here?
Answer: Its value is ~10 µM.

Question: Which results are given for “CATCH(−)GFP: recombinant fusion of CATCH(−) and superfolder green fluorescent protein (GFP)”?
Answer: Fluorescence of hydrogel after incubation under excess 1x PBS ([2]; CATCH hydrogels formed in presence of the fusion protein, 48 h): retained their fluorescence; GFP in the buffer layer over the hydrogels ([2]; excess 1x PBS, up to 48 h): no GFP was detected

Question: Which β-sheet fibrillization concentration [3] does the source give for “CATCH peptides: equimolar mixture of CATCH(+) and CATCH(−) peptides that co-assemble into β-sheet nanofibers (Ac-QQKFKFKFKQQ-NH2; not fully specified)” here?
Answer: Its β-sheet fibrillization concentration is “about 300 μM”.

B1: Ac-QQKFKFKFKQQ-Am [CATCH(+)] (peptide)
peptide: Ac-QQKFKFKFKQQ-NH2
notes: Synthetic designed cationic variant of Q11, made by Fmoc solid-phase synthesis; also called CATCH (4+); positive peptide
Question: What does the source list for B1?
Answer: binding result [4]: no binding; binding result [5]: no binding

Question: Does B2 bind [6]?
Answer: Result: no binding

B3: CATCH-U: uricase fused to a CATCH peptide, expressed in E. coli, purified via nickel affinity chromatography; probably SEQ ID NO: 9 (FIG. 59) (protein)
chain: MAEQEFEFEFEQEGSGGGSGGSGGGGSGGSGEFMSAVKAARYGKDNVRVYKVHKDEKTGVQTVYEMTVCVLLEGEIETSYTKADNSVIVATDSIKNTIYITAKQNPVTPPELFGSILGTHFIEKYNHIHAAHVNIVCHRWTRMDIDGKPHPHSFIRDSEEKRNVQVDVVEGKGIDIKSSLSGLTVLKSTNSQFWGFLRDEYTTLKETWDRILSTDVDATWQWKNFSGLQEVRSHVPKFDATWATAREVTLKTFAEDNSASVQATMYKMAEQILARQQLIETVEYSLPNKHYFEIDLSWHKGLQNTGKNAEVFAPQSDPNGLIKCTVGRSSLKSKLLEHHHHHH
Question: With B3 as the molecule, how does the “MSU crystal amount over time” value [7] read?
Answer: The value was “steady and significant decrease”.

B4: Ac-EQEFEFEFEQE-Am [CATCH(-)] (peptide)
peptide: Ac-EQEFEFEFEQE-NH2
notes: Synthetic designed anionic variant of Q11, made by Fmoc solid-phase synthesis; also called CATCH (6-); negative peptide
Question: Which results are given for B4?
Answer: binding result [8]: no binding; binding result [5]: no binding
